Here are results for 14 molecules from patent US10766952B2, “Methods for reducing migraine frequency in a subject in need thereof” (Beth Israel Deaconess Medical Center, Inc., priority 2017, dated 2020).

In assay [1] the target is T1, binding of G1 Fab to human α-CGRP on the chip (Homo sapiens).
T1 construct: made in house; host or cells: E. coli (Fab); chip peptide purchased
The assay can be described thus: Epitope mapping of antibody G1 by peptide competition using Biacore. Conditions: 10 μM peptide in 50 nM G1 Fab; FIG. 6. An excerpt:
N-biotinylated human α-CGRP was captured on SA sensor chip. […] Y axis represents percentage of binding blocked by the presence of the competing peptide compared with the binding in the absence of the competing peptide.
Human α-CGRP was purchased as an N-biotinylated version to enable its high-affinity capture via SA sensor chips. […] All these peptides are amidated at the C-terminus.
Background: Surface plasmon resonance follows binding to a sensor surface in real time, without labels.

Assay [2] deals with naïve central trigeminovascular neurons. Conditions: Storer et al., 2004; cited from earlier work.
Assay [3] deals with CGRP activity (skin blood flow after saphenous nerve stimulation). The assay can be described thus: Skin vasodilatation induced by stimulation of rat saphenous nerve. Format: in vivo. Conditions: 400 nmol/kg i.v., 3-5 minutes before stimulation; FIG. 2A, 2B. As for the experimental part:
To test antagonist activity of anti-CGRP antibodies, effect of the antibodies on skin vasodilatation by stimulation of rat saphenous nerve was tested using a rat model described previously. Escott et al., Br. J. Pharmacol. 110:772-776, 1993. In this rat model, electrical stimulation of saphenous nerve induces release of CGRP from nerve endings, resulting in an increase in skin blood flow. Blood flow in the foot skin of male Sprague Dawley rats (170-300 g, from Charles River Hollister) was measured after saphenous nerve stimulation. Rats were maintained under anesthesia with 2% isoflurane. Bretylium tosylate (30 mg/kg, administered i.v.) was given at the beginning of the experiment to minimize vasoconstriction due to the concomitant stimulation of sympathetic fibers of the saphenous nerve. Body temperature was maintained at 37° C. by the use of a rectal probe thermostatically connected to a temperature controlled heating pad. […]
For experiments shown in FIGS. […] Skin blood flow, measured as blood cell flux, was monitored with a laser Doppler flow meter. […]
For experiments shown in FIGS. 4A and 4B, saphenous nerve was exposed surgically before antibody administration. […] Skin blood flow, measured as blood cell flux, was monitored with a laser Doppler flow meter. […]

Assay [4] deals with T2, human α-CGRP (Homo sapiens, UniProt P06881).
T2 construct: 1-37 (WT); purchased; host or cells: synthetic peptide
T2 sequence (P06881 83-119 limits assumed): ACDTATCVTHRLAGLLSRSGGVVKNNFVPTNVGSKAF
The assay can be described thus: Biacore affinity of antibody G1 Fab and variants to human α-CGRP. Format: binding. Conditions: 37° C., Fab, screening mode unless underlined. In outline:
(§1)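 Fab fragments flowed over N-biotinylated CGRP captured on SA chip in HBS-EP pH 7.4; titration series fit globally to 1:1 Langmuir model, KD = koff/kon. For very slow off-rates, kon from 550 nM–1 nM series with 30 s dissociation, koff from 2-hour dissociation.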

In assay [5] the target is T3, rat α-CGRP (Rattus norvegicus, UniProt P01256).
T3 construct: rat α (1-37); host or cells: synthetic peptide
T3 sequence (P01256 83-119 limits assumed): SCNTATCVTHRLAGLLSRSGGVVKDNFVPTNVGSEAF
The assay is described as follows: Biacore affinity of antibody G1 Fab and variants to rat α-CGRP. Format: binding. Conditions: 37° C., Fab, screening mode unless underlined. In outline:
as §1

Ends that are not written are not given here.

T1 sequence (P01859 with tags, fused parts or gaps, other chains not shown): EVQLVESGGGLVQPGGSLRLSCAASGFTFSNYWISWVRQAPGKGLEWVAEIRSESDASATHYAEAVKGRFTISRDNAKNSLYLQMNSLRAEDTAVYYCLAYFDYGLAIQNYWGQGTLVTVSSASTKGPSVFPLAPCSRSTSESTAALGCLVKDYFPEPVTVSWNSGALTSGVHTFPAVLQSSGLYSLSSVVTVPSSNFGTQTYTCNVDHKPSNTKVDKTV

Consider “1-13: human α-CGRP fragment, SEQ ID NO: 40, ACDTATCVTHRLA (ACDTATCVTHRLA-OH; cysteine pairing not given here)”, for which the “percentage of binding of G1 Fab to human α-CGRP blocked by competing peptide” value (shortened to “percentage of binding of G1 Fab”) in assay [1] is on record as “did not compete”.
Still for that read-out and setting: in the case of “1-19: human α-CGRP fragment, SEQ ID NO: 39, ACDTATCVTHRLAGLLSRS (ACDTATCVTHRLAGLLSRS-OH; cysteine pairing not given here)” it was “did not compete”; in that of “1-36: human α-CGRP fragment, SEQ ID NO: 38, ACDTATCVTHRLAGLLSRSGGVVKNNFVPTNVGSKA (ACDTATCVTHRLAGLLSRSGGVVKNNFVPTNVGSKA-OH; cysteine pairing not given here)”, “about 40%”; in that of “19-36: human α-CGRP fragment, SEQ ID NO: 37, SGGVVKNNFVPTNVGSKA (SGGVVKNNFVPTNVGSKA-OH)”, “did not compete”.
`NCCCC[C@H](NC(=O)[C@@H](Cc1cc(Br)c(O)c(Br)c1)NC(=O)N1CCC(N2Cc3ccccc3NC2=O)CC1)C(=O)N1CCN(c2ccncc2)CC1` [BIBN4096BS]: the “responses to electrical stimulation of the superior sagittal sinus and microiontophoretic administration of L-glutamate” value in assay [2] is “inhibits”.
Take “CGRP 8-37: positive control compound (vasodilatation antagonist)”: the “blood flow increase stimulated by electronic pulses on saphenous nerve” value in assay [3] is recorded as “inhibited”.
Consider “adrenomedullin: SEQ ID NO: 47, YRQSMNNFQGLRSFGCRFGTCTVQKLAHQIYQFTDKDKDNVAPRSKISPQGY”, for which the “percentage of binding of G1 Fab” value in assay [1] is recorded as “did not compete”.
“calcitonin: SEQ ID NO: 45, CGNLSTCMLGTYTQDFNKFHTFPQTAIGVGAP”: the “percentage of binding of G1 Fab” value in assay [1] is given as “did not compete”.
On the same count and under the same terms, to “human amylin: SEQ ID NO: 46, KCNTATCATQRLANFLVHSSNNFGAILSSTNVGSNTY” belongs “did not compete”.

B1: M41: G1 variant: L1 R28N; L2 G50A,L56T; H2 E54K,A57N,E64D; HC-FW3 L99T,A100V (antibody, V domains shown)
VH: EVQLVESGGGLVQPGGSLRLSCAASGFTFSNYWISWVRQAPGKGLEWVAEIRSKSDNSATHYADAVKGRFTISRDNAKNSLYLQMNSLRAEDTAVYYCTVYFDYGLAIQNYWGQGTLVTVSS
VL: EIVLTQSPATLSLSPGERATLSCKASKNVTTYVSWYQQKPGQAPRLLIYAASNRYTGIPARFSGSGSGTDFTLTISSLEPEDFAVYYCSQSYNYPYTFGQGTKLEIK
B1 came in with a α-human koff in assay [4] of 0.00021 s⁻¹. In assay [5], this molecule came in with a α-rat koff of 0.00453 s⁻¹.

B2: M44: G1 variant: L1 R28N; L2 G50A,L56T; H2 E54K,A57N,S58E; HC-FW3 L99T,A100V (antibody, V domains shown)
VH: EVQLVESGGGLVQPGGSLRLSCAASGFTFSNYWISWVRQAPGKGLEWVAEIRSKSDNEATHYAEAVKGRFTISRDNAKNSLYLQMNSLRAEDTAVYYCTVYFDYGLAIQNYWGQGTLVTVSS
VL: EIVLTQSPATLSLSPGERATLSCKASKNVTTYVSWYQQKPGQAPRLLIYAASNRYTGIPARFSGSGSGTDFTLTISSLEPEDFAVYYCSQSYNYPYTFGQGTKLEIK
On to B2, for which the α-human koff in assay [4] came to 0.00021 s⁻¹. In assay [5], this molecule showed a α-rat koff of 0.00613 s⁻¹.

B3: M42: G1 variant: L1 R28N; L2 G50A,L56T; H2 E54K,A57N,H61F; HC-FW3 L99T,A100V (antibody, V domains shown)
VH: EVQLVESGGGLVQPGGSLRLSCAASGFTFSNYWISWVRQAPGKGLEWVAEIRSKSDNSATFYAEAVKGRFTISRDNAKNSLYLQMNSLRAEDTAVYYCTVYFDYGLAIQNYWGQGTLVTVSS
VL: EIVLTQSPATLSLSPGERATLSCKASKNVTTYVSWYQQKPGQAPRLLIYAASNRYTGIPARFSGSGSGTDFTLTISSLEPEDFAVYYCSQSYNYPYTFGQGTKLEIK
As to B3, the α-human koff in assay [4] is 0.000417 s⁻¹. In assay [5], this molecule displayed a α-rat koff of 0.00752 s⁻¹.

B4: M43: G1 variant: L1 R28N; L2 G50A,L56T; H2 E54K,A57N,S58C; HC-FW3 L99T,A100V (antibody, V domains shown)
VH: EVQLVESGGGLVQPGGSLRLSCAASGFTFSNYWISWVRQAPGKGLEWVAEIRSKSDNCATHYAEAVKGRFTISRDNAKNSLYLQMNSLRAEDTAVYYCTVYFDYGLAIQNYWGQGTLVTVSS
VL: EIVLTQSPATLSLSPGERATLSCKASKNVTTYVSWYQQKPGQAPRLLIYAASNRYTGIPARFSGSGSGTDFTLTISSLEPEDFAVYYCSQSYNYPYTFGQGTKLEIK
The molecule B4 yielded a α-human koff in assay [4] of 0.000263 s⁻¹. Moreover, the α-rat koff in assay [5] was 0.00453 s⁻¹.

B5: M45: G1 variant: L1 R28N; L2 G50A,L56T; H2 E54K,A57N,S58E,E64D; HC-FW3 L99T,A100V (antibody, V domains shown)
VH: EVQLVESGGGLVQPGGSLRLSCAASGFTFSNYWISWVRQAPGKGLEWVAEIRSKSDNEATHYADAVKGRFTISRDNAKNSLYLQMNSLRAEDTAVYYCTVYFDYGLAIQNYWGQGTLVTVSS
VL: EIVLTQSPATLSLSPGERATLSCKASKNVTTYVSWYQQKPGQAPRLLIYAASNRYTGIPARFSGSGSGTDFTLTISSLEPEDFAVYYCSQSYNYPYTFGQGTKLEIK
Consider B5, for which, in assay [4], the α-human koff turned out to be 0.000211 s⁻¹. The same molecule came in with a α-rat koff in assay [5] of 0.00558 s⁻¹.
